Values quoted from earlier work, collected in article PMC5338744.

Molecular target: VEGFR2 (KDR) (Homo sapiens) (UniProt P35968)
Sequence of UniProt P35968 (P35968 20-1356): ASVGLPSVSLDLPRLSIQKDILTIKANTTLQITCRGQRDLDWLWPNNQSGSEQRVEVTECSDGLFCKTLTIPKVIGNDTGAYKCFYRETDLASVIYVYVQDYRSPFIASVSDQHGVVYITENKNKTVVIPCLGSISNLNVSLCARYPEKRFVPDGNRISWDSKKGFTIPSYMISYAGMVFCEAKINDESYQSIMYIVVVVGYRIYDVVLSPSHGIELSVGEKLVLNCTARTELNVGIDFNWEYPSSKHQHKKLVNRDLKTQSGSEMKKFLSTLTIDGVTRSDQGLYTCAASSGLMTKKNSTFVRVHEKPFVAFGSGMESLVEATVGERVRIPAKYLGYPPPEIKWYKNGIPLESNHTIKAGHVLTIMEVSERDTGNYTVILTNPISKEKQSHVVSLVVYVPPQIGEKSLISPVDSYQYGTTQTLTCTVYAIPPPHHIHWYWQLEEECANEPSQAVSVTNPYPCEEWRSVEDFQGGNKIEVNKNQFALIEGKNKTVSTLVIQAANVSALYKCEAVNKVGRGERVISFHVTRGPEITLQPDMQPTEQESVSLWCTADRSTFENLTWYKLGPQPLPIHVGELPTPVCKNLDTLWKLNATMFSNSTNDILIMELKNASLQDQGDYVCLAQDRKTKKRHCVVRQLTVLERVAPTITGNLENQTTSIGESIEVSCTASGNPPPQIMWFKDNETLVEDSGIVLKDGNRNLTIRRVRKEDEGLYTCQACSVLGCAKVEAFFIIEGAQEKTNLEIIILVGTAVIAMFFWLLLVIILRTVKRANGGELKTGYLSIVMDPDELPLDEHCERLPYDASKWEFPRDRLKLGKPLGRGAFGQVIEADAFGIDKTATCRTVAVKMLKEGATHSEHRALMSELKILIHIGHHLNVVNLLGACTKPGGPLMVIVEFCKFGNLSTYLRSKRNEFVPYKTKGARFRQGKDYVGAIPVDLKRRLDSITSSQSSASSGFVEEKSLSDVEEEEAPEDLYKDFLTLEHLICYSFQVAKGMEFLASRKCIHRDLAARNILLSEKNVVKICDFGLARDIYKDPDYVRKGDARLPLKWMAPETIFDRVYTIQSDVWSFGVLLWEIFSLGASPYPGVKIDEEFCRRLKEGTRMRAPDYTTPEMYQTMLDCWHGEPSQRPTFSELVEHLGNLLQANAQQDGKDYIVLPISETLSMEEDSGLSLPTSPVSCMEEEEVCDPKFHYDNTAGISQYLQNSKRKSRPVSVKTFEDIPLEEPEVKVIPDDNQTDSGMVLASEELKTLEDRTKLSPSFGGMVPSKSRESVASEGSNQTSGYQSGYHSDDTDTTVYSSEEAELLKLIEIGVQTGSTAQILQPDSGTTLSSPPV

## VEGF (from UniProt P15692)
  Kd: 0.76 nM
